T1: EB2 protein (endogenous target of CDKL5 in mouse brain), Q8R001
T1 chain: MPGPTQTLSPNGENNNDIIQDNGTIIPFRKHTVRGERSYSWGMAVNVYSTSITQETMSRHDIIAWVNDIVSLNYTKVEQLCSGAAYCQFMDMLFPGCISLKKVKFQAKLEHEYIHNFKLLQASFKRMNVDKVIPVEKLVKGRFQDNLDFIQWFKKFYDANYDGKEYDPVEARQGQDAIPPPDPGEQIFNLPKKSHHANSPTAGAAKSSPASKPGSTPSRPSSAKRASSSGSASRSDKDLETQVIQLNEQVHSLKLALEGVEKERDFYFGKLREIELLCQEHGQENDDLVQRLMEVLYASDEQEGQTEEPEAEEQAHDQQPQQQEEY

B1: human CDKL5, isoform 3 (protein)
chain: MKIPNIGNVMNKFEILGVVGEGAYGVVLKCRHKETHEIVAIKKFKDSEENEEVKETTLRELKMLRTLKQENIVELKEAFRRRGKLYLVFEYVEKNMLELLEEMPNGVPPEKVKSYIYQLIKAIHWCHKNDIVHRDIKPENLLISHNDVLKLCDFGFARNLSEGNNANYTEYVATRWYRSPELLLGAPYGKSVDMWSVGCILGELSDGQPLFPGESEIDQLFTIQKVLGPLPSEQMKLFYSNPRFHGLRFPAVNHPQSLERRYLGILNSVLLDLMKNLLKLDPADRYLTEQCLNHPTFQTQRLLDRSPSRNQAGKSTALQSHHRSNSKDIQNLSVGLPRADEGLPANESFLNGNLAGASLSPLHTKTYQASSQPGSTSKDLTNNNIPHLLSPKEAKSKTEFDFNIDPKPSEGPGTKYLKSNSRSQQNRHSFMESSQSKAGTLQPNEKQSRHSYIDTIPQSSRSPSYRTKAKSHGALSDSKSVSNLSEARAQIAEPSTSRYFPSSCLDLNSPTSPTPTRHSDTRTLLSPSGRNNRNEGTLDSRRTTTRHSKTMEELKLPEHMDSSHSHSLSAPHESFSYGLGYTSPFSSQQRPHRHSMYVTRDKVRAKGLDGSLSIGQGMAARANSLQLLSPQPGEQLPPEMTVARSSVKETSREGTSSFHTRQKSEGGVYHDPHSDDGTAPKENRHLYNDPVPRRVGSFYRVPSPRPDNSFHENNVSTRVSSLPSESSSGTNHSKRQPAFDPWKSPENISHSEQLKEKEKQGFFRSMKKKKKKSQTVPNSDSPDLLTLQKSIHSASTPSSRPKEWRPEKISDLQTQSQPLKSLRKLLHLSSASNHPASSDPRFQPLTAQQTKNSFSEIRIHPLSQASGGSSNIRQEPAPKGRPALQLPGQMDPGWHVSSVTRSATEGPSYSEQLGAKSGPNGHPYNRTNRSRMPNLNDLKETAL
B2: human CDKL5, isoform 2 (protein)
chain: MKIPNIGNVMNKFEILGVVGEGAYGVVLKCRHKETHEIVAIKKFKDSEENEEVKETTLRELKMLRTLKQENIVELKEAFRRRGKLYLVFEYVEKNMLELLEEMPNGVPPEKVKSYIYQLIKAIHWCHKNDIVHRDIKPENLLISHNDVLKLCDFGFARNLSEGNNANYTEYVATRWYRSPELLLGAPYGKSVDMWSVGCILGELSDGQPLFPGESEIDQLFTIQKVLGPLPSEQMKLFYSNPRFHGLRFPAVNHPQSLERRYLGILNSVLLDLMKNLLKLDPADRYLTEQCLNHPTFQTQRLLDRSPSRSAKRKPYHVESSTLSNRNQAGKSTALQSHHRSNSKDIQNLSVGLPRADEGLPANESFLNGNLAGASLSPLHTKTYQASSQPGSTSKDLTNNNIPHLLSPKEAKSKTEFDFNIDPKPSEGPGTKYLKSNSRSQQNRHSFMESSQSKAGTLQPNEKQSRHSYIDTIPQSSRSPSYRTKAKSHGALSDSKSVSNLSEARAQIAEPSTSRYFPSSCLDLNSPTSPTPTRHSDTRTLLSPSGRNNRNEGTLDSRRTTTRHSKTMEELKLPEHMDSSHSHSLSAPHESFSYGLGYTSPFSSQQRPHRHSMYVTRDKVRAKGLDGSLSIGQGMAARANSLQLLSPQPGEQLPPEMTVARSSVKETSREGTSSFHTRQKSEGGVYHDPHSDDGTAPKENRHLYNDPVPRRVGSFYRVPSPRPDNSFHENNVSTRVSSLPSESSSGTNHSKRQPAFDPWKSPENISHSEQLKEKEKQGFFRSMKKKKKKSQTTDSTNGENPSIKKSLFPLFNSKNHLKHSSSLKKLPVVTPPMVPNSDSPDLLTLQKSIHSASTPSSRPKEWRPEKISDLQTQSQPLKSLRKLLHLSSASNHPASSDPRFQPLTAQQTKNSFSEIRIHPLSQASGGSSNIRQEPAPKGRPALQLPGQMDPGWHVSSVTRSATEGPSYSEQLGAKSGPNGHPYNRTNRSRMPNLNDLKETAL
B3: human CDKL5, isoform 1 (protein)
chain: MKIPNIGNVMNKFEILGVVGEGAYGVVLKCRHKETHEIVAIKKFKDSEENEEVKETTLRELKMLRTLKQENIVELKEAFRRRGKLYLVFEYVEKNMLELLEEMPNGVPPEKVKSYIYQLIKAIHWCHKNDIVHRDIKPENLLISHNDVLKLCDFGFARNLSEGNNANYTEYVATRWYRSPELLLGAPYGKSVDMWSVGCILGELSDGQPLFPGESEIDQLFTIQKVLGPLPSEQMKLFYSNPRFHGLRFPAVNHPQSLERRYLGILNSVLLDLMKNLLKLDPADRYLTEQCLNHPTFQTQRLLDRSPSRSAKRKPYHVESSTLSNRNQAGKSTALQSHHRSNSKDIQNLSVGLPRADEGLPANESFLNGNLAGASLSPLHTKTYQASSQPGSTSKDLTNNNIPHLLSPKEAKSKTEFDFNIDPKPSEGPGTKYLKSNSRSQQNRHSFMESSQSKAGTLQPNEKQSRHSYIDTIPQSSRSPSYRTKAKSHGALSDSKSVSNLSEARAQIAEPSTSRYFPSSCLDLNSPTSPTPTRHSDTRTLLSPSGRNNRNEGTLDSRRTTTRHSKTMEELKLPEHMDSSHSHSLSAPHESFSYGLGYTSPFSSQQRPHRHSMYVTRDKVRAKGLDGSLSIGQGMAARANSLQLLSPQPGEQLPPEMTVARSSVKETSREGTSSFHTRQKSEGGVYHDPHSDDGTAPKENRHLYNDPVPRRVGSFYRVPSPRPDNSFHENNVSTRVSSLPSESSSGTNHSKRQPAFDPWKSPENISHSEQLKEKEKQGFFRSMKKKKKKSQTVPNSDSPDLLTLQKSIHSASTPSSRPKEWRPEKISDLQTQSQPLKSLRKLLHLSSASNHPASSDPRFQPLTAQQTKNSFSEIRIHPLSQASGGSSNIRQEPAPKGRPALQLPGQMDPGWHVSSVTRSATEGPSYSEQLGAKSGPNGHPYNRTNRSRMPNLNDLKETAL
B4: human CDKL5, isoform 4 (protein)
chain: MKIPNIGNVMNKFEILGVVGEGAYGVVLKCRHKETHEIVAIKKFKDSEENEEVKETTLRELKMLRTLKQENIVELKEAFRRRGKLYLVFEYVEKNMLELLEEMPNGVPPEKVKSYIYQLIKAIHWCHKNDIVHRDIKPENLLISHNDVLKLCDFGFARNLSEGNNANYTEYVATRWYRSPELLLGAPYGKSVDMWSVGCILGELSDGQPLFPGESEIDQLFTIQKVLGPLPSEQMKLFYSNPRFHGLRFPAVNHPQSLERRYLGILNSVLLDLMKNLLKLDPADRYLTEQCLNHPTFQTQRLLDRSPSRNQAGKSTALQSHHRSNSKDIQNLSVGLPRADEGLPANESFLNGNLAGASLSPLHTKTYQASSQPGSTSKDLTNNNIPHLLSPKEAKSKTEFDFNIDPKPSEGPGTKYLKSNSRSQQNRHSFMESSQSKAGTLQPNEKQSRHSYIDTIPQSSRSPSYRTKAKSHGALSDSKSVSNLSEARAQIAEPSTSRYFPSSCLDLNSPTSPTPTRHSDTRTLLSPSGRNNRNEGTLDSRRTTTRHSKTMEELKLPEHMDSSHSHSLSAPHESFSYGLGYTSPFSSQQRPHRHSMYVTRDKVRAKGLDGSLSIGQGMAARANSLQLLSPQPGEQLPPEMTVARSSVKETSREGTSSFHTRQKSEGGVYHDPHSDDGTAPKENRHLYNDPVPRRVGSFYRVPSPRPDNSFHENNVSTRVSSLPSESSSGTNHSKRQPAFDPWKSPENISHSEQLKEKEKQGFFRSMKKKKKKSQTTDSTNGENPSIKKSLFPLFNSKNHLKHSSSLKKLPVVTPPMVPNSDSPDLLTLQKSIHSASTPSSRPKEWRPEKISDLQTQSQPLKSLRKLLHLSSASNHPASSDPRFQPLTAQQTKNSFSEIRIHPLSQASGGSSNIRQEPAPKGRPALQLPGQMDPGWHVSSVTRSATEGPSYSEQLGAKSGPNGHPYNRTNRSRMPNLNDLKETAL

Target: T1, EB2 protein (endogenous target of CDKL5 …)

Protein	EB2 phosphorylation levels (Western blot, Cdkl5-ko mouse brain)	ability to phosphorylate EB2 (mouse brain)	EB2 phosphorylation (Cdkl5(D471fs) mouse brain, 3 months after AAV)	EB2 phosphorylation (Cdkl5(R59X) mouse brain, 3 months after AAV)	kinase activity, blotting for phosphorylated EB2 (Cdkl5-ko mouse brain, 3 months after AAV)	phosphorylation of EB2 (Western blot of mouse brain, pS222EB2)
B1	by isoforms three or 4 slightly lower compared to isoform 1	All tested plasmids expressed well in mouse brain, showing minor differences in ability to phosphorylate EB2 (measurement of CDKL5 kinase activity)	–	–	–	–
B2	EB2 phosphorylation levels generated by isoform 2 were slightly higher	All tested plasmids expressed well in mouse brain, showing minor differences in ability to phosphorylate EB2 (measurement of CDKL5 kinase activity)	–	–	–	–
B3	–	All tested plasmids expressed well in mouse brain, showing minor differences in ability to phosphorylate EB2 (measurement of CDKL5 kinase activity)	showed robust hCDKL5 protein expression and EB2 phosphorylation 3 months later	showed robust hCDKL5 protein expression and EB2 phosphorylation 3 months later	human CDKL5 showed robust kinase activity when blotting for phosphorylated EB2 protein	CDKL5 was fully active, as determined by its ability to phosphorylate its endogenous target EB2 protein
B4	by isoforms three or 4 slightly lower compared to isoform 1	All tested plasmids expressed well in mouse brain, showing minor differences in ability to phosphorylate EB2 (measurement of CDKL5 kinase activity)	–	–	–	–
